Laboratory results reported in article PMC11897130 (Nature Communications, 2025).

Tests used:
[1] = target: human GLT25D1/ColGalT1 (procollagen galactosyltransferase 1), amino acids 30-622, wild type (human) (UniProt Q8NBJ5); experiment: cryo-EM structure
cryo-EM structure = target: the molecule itself; experiment: cryo-EM structure

“human GLT25D1/ColGalT1 (procollagen galactosyltransferase 1), amino acids 30-622, wild type (from UniProt Q8NBJ5 30-622) (enzyme)” showed a stoichiometry N [1] of 2.

B1: human LH3/PLOD3 (multifunctional procollagen lysine hydroxylase and glycosyltransferase LH3), wild type (enzyme)
chain: SDRPRGRDPVNPEKLLVITVATAETEGYLRFLRSAEFFNYTVRTLGLGEEWRGGDVARTVGGGQKVRWLKKEMEKYADREDMIIMFVDSYDVILAGSPTELLKKFVQSGSRLLFSAESFCWPEWGLAEQYPEVGTGKRFLNSGGFIGFATTIHQIVRQWKYKDDDDDQLFYTRLYLDPGLREKLSLNLDHKSRIFQNLNGALDEVVLKFDRNRVRIRNVAYDTLPIVVHGNGPTKLQLNYLGNYVPNGWTPEGGCGFCNQDRRTLPGGQPPPRVFLAVFVEQPTPFLPRFLQRLLLLDYPPDRVTLFLHNNEVFHEPHIADSWPQLQDHFSAVKLVGPEEALSPGEARDMAMDLCRQDPECEFYFSLDADAVLTNLQTLRILIEENRKVIAPMLSRHGKLWSNFWGALSPDEYYARSEDYVELVQRKRVGVWNVPYISQAYVIRGDTLRMELPQRDVFSGSDTDPDMAFCKSFRDKGIFLHLSNQHEFGRLLATSRYDTEHLHPDLWQIFDNPVDWKEQYIHENYSRALEGEGIVEQPCPDVYWFPLLSEQMCDELVAEMEHYGQWSGGRHEDSRLAGGYENVPTVDIHMKQVGYEDQWLQLLRTYVGPMTESLFPGYHTKARAVMNFVVRYRPDEQPSLRPHHDSSTFTLNVALNHKGLDYEGGGCRFLRYDCVISSPRKGWALLHPGRLTHYHEGLPTTWGTRYIMVSFVDP
modifications: N-linked glycans at N63 and N548 (seen in the cryo-EM map)
B1 was tested, and the “stoichiometry N” value (cryo-EM structure) was 2.
